Laboratory results from publication PMC13397619.

B1: NLV2 TCR alpha chain (CDR3α only) (parent)
chain: AGPMKTSYDKVI
partner: MLVPMVATV

Variants of: B1
Test: T-Switch: Jurkat TCRβ−/− cells expressing a CDR3 saturation-mutagenesis library, stained with two peptide-HLA-A*02:01 tetramers (original and novel peptide) plus anti-CD3, FACS-sorted into four gates, gDNA sequenced
Conditions: with HLA-A*02:01 with peptide … (NLV 3-1, the novel peptide), tetramers 1 µg/mL, 30 min on ice, SP, DP and SW gates expanded about 10 days between rounds ('two to three rounds of selection' in the Methods), gate SW: higher = more of the variant in the gate that binds the novel peptide and not the original one = switched binding. Fold enrichment of the CDR3 variant in one FACS gate of a two-tetramer stain, unresolved parent, parent is a CDR3 fragment, scale: fold enrichment, numbering: sequential-on-construct, sequence starts at 1

Row | Variant | enrichment
1 | […] (CDR3 as printed); T6R derived by comparing it with the table's wild-type CDR3 AGPMKTSYDKVI | 0
2 | […] (CDR3 as printed); T6V derived by comparing it with the table's wild-type CDR3 AGPMKTSYDKVI | 0
3 | […] (CDR3 as printed); A1H derived by comparing it with the table's wild-type CDR3 AGPMKTSYDKVI | 0
4 | […] (CDR3 as printed); G2P derived by comparing it with the table's wild-type CDR3 AGPMKTSYDKVI | 0
5 | […] (CDR3 as printed); S7H derived by comparing it with the table's wild-type CDR3 AGPMKTSYDKVI | 0
6 | […] (CDR3 as printed); G2N derived by comparing it with the table's wild-type CDR3 AGPMKTSYDKVI | 0
7 | […] (CDR3 as printed); G2D derived by comparing it with the table's wild-type CDR3 AGPMKTSYDKVI | 0
8 | […] (CDR3 as printed); V11I derived by comparing it with the table's wild-type CDR3 AGPMKTSYDKVI | 0
9 | […] (CDR3 as printed); P3S derived by comparing it with the table's wild-type CDR3 AGPMKTSYDKVI | 0
10 | […] (CDR3 as printed); A1K derived by comparing it with the table's wild-type CDR3 AGPMKTSYDKVI | 1.01
11 | […] (CDR3 as printed); K5D derived by comparing it with the table's wild-type CDR3 AGPMKTSYDKVI | 0
12 | […] (CDR3 as printed); K5G derived by comparing it with the table's wild-type CDR3 AGPMKTSYDKVI | 0
13 | […] (CDR3 as printed); K5T derived by comparing it with the table's wild-type CDR3 AGPMKTSYDKVI | 0
14 | […] (CDR3 as printed); D9K derived by comparing it with the table's wild-type CDR3 AGPMKTSYDKVI | 0
15 | […] (CDR3 as printed); Y8V derived by comparing it with the table's wild-type CDR3 AGPMKTSYDKVI | 0
16 | […] (CDR3 as printed); A1R derived by comparing it with the table's wild-type CDR3 AGPMKTSYDKVI | 0
17 | […] (CDR3 as printed); M4Y derived by comparing it with the table's wild-type CDR3 AGPMKTSYDKVI | 0
18 | […] (CDR3 as printed); P3Q derived by comparing it with the table's wild-type CDR3 AGPMKTSYDKVI | 0
19 | […] (CDR3 as printed); D9G derived by comparing it with the table's wild-type CDR3 AGPMKTSYDKVI | 0
20 | […] (CDR3 as printed); V11G derived by comparing it with the table's wild-type CDR3 AGPMKTSYDKVI | 0
21 | […] (CDR3 as printed); G2L derived by comparing it with the table's wild-type CDR3 AGPMKTSYDKVI | 0
22 | […] (CDR3 as printed); S7A derived by comparing it with the table's wild-type CDR3 AGPMKTSYDKVI | 0
23 | […] (CDR3 as printed); I12P derived by comparing it with the table's wild-type CDR3 AGPMKTSYDKVI | 0

Row | Variant | enrichment
24 | […] (CDR3 as printed); K10V derived by comparing it with the table's wild-type CDR3 AGPMKTSYDKVI | 0
25 | […] (CDR3 as printed); D9P derived by comparing it with the table's wild-type CDR3 AGPMKTSYDKVI | 0
26 | […] (CDR3 as printed); K5W derived by comparing it with the table's wild-type CDR3 AGPMKTSYDKVI | 0
27 | […] (CDR3 as printed); A1C derived by comparing it with the table's wild-type CDR3 AGPMKTSYDKVI | 0
28 | […] (CDR3 as printed); K10R derived by comparing it with the table's wild-type CDR3 AGPMKTSYDKVI | 0
29 | […] (CDR3 as printed); V11N derived by comparing it with the table's wild-type CDR3 AGPMKTSYDKVI | 0
30 | […] (CDR3 as printed); A1S derived by comparing it with the table's wild-type CDR3 AGPMKTSYDKVI | 0
31 | […] (CDR3 as printed); V11F derived by comparing it with the table's wild-type CDR3 AGPMKTSYDKVI | 0
32 | […] (CDR3 as printed); K10P derived by comparing it with the table's wild-type CDR3 AGPMKTSYDKVI | 0
33 | […] (CDR3 as printed); D9Y derived by comparing it with the table's wild-type CDR3 AGPMKTSYDKVI | 0
34 | […] (CDR3 as printed); D9T derived by comparing it with the table's wild-type CDR3 AGPMKTSYDKVI | 0
35 | […] (CDR3 as printed); D9F derived by comparing it with the table's wild-type CDR3 AGPMKTSYDKVI | 0
36 | […] (CDR3 as printed); V11L derived by comparing it with the table's wild-type CDR3 AGPMKTSYDKVI | 0
37 | […] (CDR3 as printed); A1L derived by comparing it with the table's wild-type CDR3 AGPMKTSYDKVI | 0
38 | […] (CDR3 as printed); G2W derived by comparing it with the table's wild-type CDR3 AGPMKTSYDKVI | 0
39 | […] (CDR3 as printed); P3E derived by comparing it with the table's wild-type CDR3 AGPMKTSYDKVI | 0
40 | […] (CDR3 as printed); Y8G derived by comparing it with the table's wild-type CDR3 AGPMKTSYDKVI | 0
41 | […] (CDR3 as printed); M4R derived by comparing it with the table's wild-type CDR3 AGPMKTSYDKVI | 0
42 | […] (CDR3 as printed); V11W derived by comparing it with the table's wild-type CDR3 AGPMKTSYDKVI | 0
43 | […] (CDR3 as printed); V11S derived by comparing it with the table's wild-type CDR3 AGPMKTSYDKVI | 0
44 | […] (CDR3 as printed); K10M derived by comparing it with the table's wild-type CDR3 AGPMKTSYDKVI | 0
45 | […] (CDR3 as printed); K5C derived by comparing it with the table's wild-type CDR3 AGPMKTSYDKVI | 0
46 | […] (CDR3 as printed); K10L derived by comparing it with the table's wild-type CDR3 AGPMKTSYDKVI | 0

Row | Variant | enrichment
47 | […] (CDR3 as printed); M4A derived by comparing it with the table's wild-type CDR3 AGPMKTSYDKVI | 0
48 | […] (CDR3 as printed); M4C derived by comparing it with the table's wild-type CDR3 AGPMKTSYDKVI | 0
49 | […] (CDR3 as printed); M4Q derived by comparing it with the table's wild-type CDR3 AGPMKTSYDKVI | 0
50 | […] (CDR3 as printed); P3K derived by comparing it with the table's wild-type CDR3 AGPMKTSYDKVI | 0
51 | […] (CDR3 as printed); S7T derived by comparing it with the table's wild-type CDR3 AGPMKTSYDKVI | 0
52 | […] (CDR3 as printed); D9A derived by comparing it with the table's wild-type CDR3 AGPMKTSYDKVI | 0
53 | […] (CDR3 as printed); K5Y derived by comparing it with the table's wild-type CDR3 AGPMKTSYDKVI | 0
54 | […] (CDR3 as printed); G2M derived by comparing it with the table's wild-type CDR3 AGPMKTSYDKVI | 0
55 | […] (CDR3 as printed); A1Y derived by comparing it with the table's wild-type CDR3 AGPMKTSYDKVI | 0.533
56 | […] (CDR3 as printed); S7E derived by comparing it with the table's wild-type CDR3 AGPMKTSYDKVI | 0
57 | […] (CDR3 as printed); S7K derived by comparing it with the table's wild-type CDR3 AGPMKTSYDKVI | 0
58 | […] (CDR3 as printed); P3D derived by comparing it with the table's wild-type CDR3 AGPMKTSYDKVI | 0
59 | […] (CDR3 as printed); V11R derived by comparing it with the table's wild-type CDR3 AGPMKTSYDKVI | 0
60 | […] (CDR3 as printed); D9Q derived by comparing it with the table's wild-type CDR3 AGPMKTSYDKVI | 0
61 | […] (CDR3 as printed); T6C derived by comparing it with the table's wild-type CDR3 AGPMKTSYDKVI | 0
62 | […] (CDR3 as printed); D9M derived by comparing it with the table's wild-type CDR3 AGPMKTSYDKVI | 0
63 | […] (CDR3 as printed); T6A derived by comparing it with the table's wild-type CDR3 AGPMKTSYDKVI | 0
64 | […] (CDR3 as printed); S7Q derived by comparing it with the table's wild-type CDR3 AGPMKTSYDKVI | 0
65 | […] (CDR3 as printed); A1Q derived by comparing it with the table's wild-type CDR3 AGPMKTSYDKVI | 0
66 | […] (CDR3 as printed); G2Y derived by comparing it with the table's wild-type CDR3 AGPMKTSYDKVI | 0
67 | […] (CDR3 as printed); K5L derived by comparing it with the table's wild-type CDR3 AGPMKTSYDKVI | 0
68 | […] (CDR3 as printed); P3R derived by comparing it with the table's wild-type CDR3 AGPMKTSYDKVI | 0
69 | […] (CDR3 as printed); K5V derived by comparing it with the table's wild-type CDR3 AGPMKTSYDKVI | 0
